Changes are numbered by the printed parent chain.
T1: PDZ domain of mitochondrial outer membrane protein 25 (mammalian (so in the source), UniProt P57105 6-100, limits assumed)
T1 construct: domain: PDZ domain; Wild type PDZ as coated in ELISA and immobilised in SPR; also called wild type PDZ; OMP25 PDZ domain
T1 sequence (looked up): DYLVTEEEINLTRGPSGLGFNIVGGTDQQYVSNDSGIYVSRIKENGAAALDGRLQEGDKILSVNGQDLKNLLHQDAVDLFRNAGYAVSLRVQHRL

T2: MBP-PDZ fusion protein (mammalian (so in the source), UniProt P57105 6-100, limits assumed)
T2 construct: domain: PDZ domain; also called MBP fusion PDZ
T2 sequence (looked up): T1 sequence (looked up)

B1: G60 (VHH)
VHH: QMGRNSAEVQLVESGGSLRLSCAASGSGFSSSIIAWYRQAPGKQRELVAAIGGPGSTNYADFVEGRFTISRDNAKNTGYLQMNNLNPEDTAVYYCNEVTRSGREYWGQGTQVTVSS
notes: also called G60(C1)
B2: NbPDZ P10 (VHH)
VHH: DVQLVESGGGLVQAGGSLRLSCTASGRTFSTYTMAWFRQAPGKEREFVAAITWSGTYYADSVKGRFTISRDNAKNTMYLQMNSLKPEDTAVYICAAVIGSTVDSYSPSDPLEYDYWGQGTQVTVSE
B3: H14 (VHH)
VHH: HVQLVESGGGLVQAGGSLRLSCTASGRTFTPYTMGWFRQAPGKEREFVASILWSGNNRDYADSVKDRFAISRDNAKNTAYLQMNSLKPEDTAVYYCAAGDGLGFYRSVNQYDYWGQGTQVTVSS
B4: P1 (VHH)
VHH: DVQLVESGGGLVQPGGSLRLSCAASGFTLDDYAIGWFRQAPGKEREGVSCISSHGSTYYADSVKGRFTISRDNVKNTLYLQMNSLKPEDTALYYCAASYYSDYEVAVCRSDALDAWGQGTQVTVSE
B5: P4 (VHH)
VHH: HVQLVESGGGLVQAGGSLRLSCAAAGRTSSDYAMGWFRQAPGKEREFVSAINWSGISTYYADSVKGRFTISRDNAKNTVHLQMNSLKPEDTAVYYCAAEKLESLRNWHDPLMYDYWGQGTQVTVSE
B6: P5 (VHH)
VHH: DVQLVESGGGLVQAGDSLRLSCAASGITFRWYTMAWFRQAPGKERDFVATINWSGSDTNYADSVKGRFTISRDNAKNTVTLQMNSLQPEDTAVYYCAGVPGTSLSGETDPRDYDYWGQGTQVTVSE
B7: P15 (VHH)
VHH: QVQLVESGGGLVQAGGSLRLSCVASGRPFSSLDMGWFRQRPGKERDVVATINWTGDSTYYLDSVKGRFTISRDNAKNTVFLQMNSLKPEDTAVYYCAARGGGSSVDSEYDVGEFEYDYWGQGTQVTVSS
B8: P2 (VHH)
VHH: DVQLVESGGGLVQAGGSLRLSCAASGHTFSSYTMGWFHQAPGKEREFVAEISGTGGNTGYADSVKGRFTISRDNAKNTVYLQMNSLKPEDTAVYYCAAVIGSPTDSSDYRSSLDYDYWGQGTQVTVSE
B9: P6 (VHH)
VHH: B8 VHH with D1H, H27R, S31R, I70M, A92G
B10: P3 (VHH)
VHH: B8 VHH with H27R, S52G
B11: H21 (VHH)
VHH: QVQLVESGGGLVQAGGSLRLSCAASGYTSGNDAMGWFRQAPGKEREFVGAIRWSGVSTYYADSVKGRFTISRDGAKNTLYLQMNSLKPEDTAVYYCAAKFTGSAWYGVQKLESTYWDYWGQGTQVTVSS
B12: H3 (VHH)
VHH: QVQLVESGGGLVQAGGSLRLSCVASGRTFEPFVMGWFRQAPGKEREFVATISWSGGSLSYADSVKGRFTVSRDNAKNTVYLQMNSLKPEDTAVYYCAAAPGVGNYRYTFQYDYWGQGTQVTVSE
B13: H28 (VHH)
VHH: DVQLVESGGGLAQAGGSLRLSCAASGRTFSNECMGWFRQAPGKEREFVATIRSTGHISYATSVQGRFTVSRDIAKNTVYLEMNNLKPEDTAVYSCGAGVSDYGCYRTSGYNYWGQGTQVTVSS
notes: also called N28
B14: H7 (VHH)
VHH: DVQLVESGGGSVQAGGSLRLSCAASGGTFSSYAMGWYRQAPGKEREFVSGISWSGSSIDYVDSVKGRFTISRDNAKNTVYLQMNSLKPEDTAVYYCGAADPMGLGYGLGPRPVDRLLSAECDYWGQGTQVTVSS
B15: H2 (VHH)
VHH: QVQLVESGGGLVQAGGSLRLSCTASGRTFTPYTIGWFRQAPGKEREFVASILWSGINTDYADSVKGRFAISRDNAKNAAYLQMSNLKPEDTAVYYCATGGGLGYYRSVSQYDYWGQGTQVTVSE
B16: H35 (VHH)
VHH: EVQLVESGGGLVQAGGSLRVSCAVSGISIYHSGWYRQAPGKERELVAGISRGGSTNYADSVKGRFTISRDSGENTVYLQMNSLKPEDTAVYYCKIDWDYRGVSQTAWGQGTQVTVSS
B17: H18 (VHH)
VHH: EVQLVESGGGLVQAGGSLRLSCTASGPKDTPYTMGWFRQVPGKEREFVASVLWSGINTDYADSVKGRFAISRNNAKNTMYLQMNSLKPEDTAVYYCAAGYGLGFYRSISQYDYWGHGTQVTVSS
B18: H20 (VHH)
VHH: B17 VHH with S107T, I108V
B19: H16 (VHH)
VHH: QVQLVESGGGLVQTGGSLTLSCAASGRTFSTKSMGWFRQAPGKEREFVADINWNGGITHYADSVEGRFTISRDNANDMVYLQMNSLKPEDTAVYYCAGGRYSTLFSKSEADYDYWGQGTQVTVSS
B20: H11 (VHH)
VHH: QVQLVESGGGLVQVGGSLRLSCAASGRTFSNYVMGWFRQAPGKEREFVAYIHWSGSSTSYADSVKGRFTISRDNTKNTMYLQMNSLKPEDTAVYYCTADQYASTLLRAAGEYWGQGTQVTVSS
B21: H30 (VHH)
VHH: HVQLVESGGGLAQAGGSLRLSCAASGGTFSNSCMGWFRQAPGMEREFVAIIRSTGHTTYADSVEGRFTVSRDIAKNTVYLEMNSLKPEDTAVYSCVAGVSDYGCYRTSGIKYWGQGTQVTVSS
B22: H4 (VHH)
VHH: HVQLVESGGGLVQTGGSLRLACAASGRAFSTYAMGWFRQAPGKEREFVASINRSGSSTYYADSVKGRFTISRDNGKDTVYLQMNRLIPEDTAVYYCAADSEGVGFRNMLEYDYWGQGTQVTVSS
B23: H25 (VHH)
VHH: DVQLVESGGGLVQAGGSLRLSCAASGRTISDYGMAWFRQAPGKEREFVGVITSNSVTTYYADSVKGRFTISRDNTKNTVYLQMISLKPEDTAIYYCAARIPVGFYYNARNYDFWGQGTQVTVSS

biological target: T3, glutathione S-transferase (UniProt P08515 1-218 = GST); experiment: SPR, GST immobilised (legend of FIG. 3H; differs from Table 1)
T3 construct: Expressed in E. coli, purified on GSH resin; also called GST
T3 sequence (P08515 whole entry): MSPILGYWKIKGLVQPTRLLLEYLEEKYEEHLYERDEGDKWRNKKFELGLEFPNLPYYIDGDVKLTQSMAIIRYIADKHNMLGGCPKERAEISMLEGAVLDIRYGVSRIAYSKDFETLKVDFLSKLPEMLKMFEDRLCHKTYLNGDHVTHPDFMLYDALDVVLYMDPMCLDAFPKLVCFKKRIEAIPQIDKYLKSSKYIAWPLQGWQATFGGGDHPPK
Method: (§1) Nb affinity measurement by SPR. Surface plasmon resonance (SPR, Biacore 3000 system, GE Healthcare) was used to measure Nb affinities. Antigen proteins immobilized on the activated CM5 sensor-chip by the following steps. Protein analytes were diluted to 10-30 μg/ml in 10 mM sodium acetate, pH 4.5, and were injected into the SPR system at 5 μl/min for 420 s. The surface of the sensor was then blocked by 1 M ethanolamine-HCl (pH 8.5). For each Nb analyte, a series of dilution (spanning three orders of magnitude) was injected in HBS-EP+ running buffer (GE-Healthcare) containing 2 mM DTT, at a flow rate of 20-30 μl/min for 120-180 s, followed by a dissociation time of 5-20 mins based on dissociation rate. Between each injection, the sensor chip surface was regenerated with the low pH buffer containing 10 mM glycine-HCl (pH 1.5-2.5), or high pH buffer of 20-40 mM NaOH (pH 12-13). The regeneration was performed with a flow rate of 40-50 μl/min for 30 s. The measurements were duplicated and only highly reproducible data was used for analysis. Binding sensorgrams for each Nb were processed and analyzed using BIAevaluation by fitting with 1:1 Langmuir model or 1:1 Langmuir model with mass transfer.

| Kd [nM] | Binder |
| --- | --- |
| 1300 | B1 |

biological target: T1, PDZ domain of mitochondrial outer …; experiment: indirect ELISA, wild type PDZ coated
Method: Indirect ELISA was carried out to evaluate the camelid immune response of an antigen and to quantify the relative affinities of antigen-specific Nbs. An antigen was coated onto a 96-well ELISA plate (R&D system) at an amount of approximately 1-10 ng per well in a coating buffer (15 mM sodium carbonate, 35 mM sodium bicarbonate, pH 9.6) overnight at 4° C. The well surface was then blocked with a blocking buffer (DPBS, 0.05% Tween 20, 5% milk) at room temperature for 2 hours. To test an immune response, the immunized serum was serially 5-fold diluted in the blocking buffer. The diluted sera were incubated with the antigen coated wells at room temperature for 2 hours. […] Three washes with 1x PBST (DPBS, 0.05% Tween 20) were carried out to remove nonspecific absorbance between incubations. […] After the STOP solution (R&D system), the plates were read at multiple wavelengths (450 nm and 550 nm) on a plate reader (Multiskan GO, Thermo Fisher). A false positive Nb binder was defined if any of the following two criteria was met: i) the ELISA signal can only be detected at a concentration of 10 μM and was under detected at 1 μM concentration. ii) At 1 μM concentration, a pronounced signal decrease (by more than 10-fold) was detected compared to the signal at 10 μM, while there were no signals can be detected at lower concentrations. […]

| WT ELISA affinity (LogIC50 (oD450nm)) | Binder |
| --- | --- |
| 5.21 | B2 |

biological target: T1, PDZ domain of mitochondrial outer …; experiment: SPR, PDZ immobilised

| Kd [nM] | koff [s⁻¹] | kon [M⁻¹ s⁻¹] | Binder |
| --- | --- | --- | --- |
| 0.0044 | 9.03e-06 | 2.06e+06 | B2 |

biological target: T4, human serum albumin (human, UniProt P02768 25-609); experiment: SPR, HSA immobilised (legend of FIG. 3I; differs from Table 2)
T4 construct: In the mutant screen wild type HSA came from medium of transfected HeLa cells; also called HSA; wild type HSA
T4 sequence (P02768 25-609 limits assumed): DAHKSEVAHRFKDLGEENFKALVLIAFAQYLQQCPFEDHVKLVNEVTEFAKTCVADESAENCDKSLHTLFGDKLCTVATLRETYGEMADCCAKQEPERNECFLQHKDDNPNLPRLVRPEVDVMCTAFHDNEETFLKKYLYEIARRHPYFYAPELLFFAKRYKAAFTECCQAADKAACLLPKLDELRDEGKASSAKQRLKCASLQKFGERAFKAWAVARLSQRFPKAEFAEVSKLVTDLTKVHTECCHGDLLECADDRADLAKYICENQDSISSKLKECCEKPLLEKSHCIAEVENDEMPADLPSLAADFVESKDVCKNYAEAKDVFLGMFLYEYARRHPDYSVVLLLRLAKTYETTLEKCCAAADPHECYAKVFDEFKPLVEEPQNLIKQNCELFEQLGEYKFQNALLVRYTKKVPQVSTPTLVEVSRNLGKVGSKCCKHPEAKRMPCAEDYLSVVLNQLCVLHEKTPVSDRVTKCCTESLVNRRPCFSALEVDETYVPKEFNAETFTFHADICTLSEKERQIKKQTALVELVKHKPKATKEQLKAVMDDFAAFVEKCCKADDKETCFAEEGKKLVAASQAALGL
Method: as §1

| koff [s⁻¹] | Binder |
| --- | --- |
| 5.75e-06 | B3 |

biological target: T3, glutathione S-transferase; experiment: SPR, GST immobilised;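 also: nanobody analytes injected as dilution series over three orders of magnitude across antigen on a CM5 chip, kinetics fitted by 1:1 Langmuir model, optionally with mass transfer, duplicate runs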
Method: as §1

| Kd [nM] | koff [s⁻¹] | kon [M⁻¹ s⁻¹] | Binder |
| --- | --- | --- | --- |
| 1200 | 0.00586 | 4870 | B1 |

biological target: T3, glutathione S-transferase; experiment: indirect ELISA, GST coated;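 also: nanobody dilution series starting at 10 µM binding plate-bound antigen, HRP anti-His or anti-T7 tag detection, TMB absorbance at 450 nm, logIC50 from four-parameter logistic fit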
Method: (§2) Indirect ELISA was carried out to evaluate the camelid immune response of an antigen and to quantify the relative affinities of antigen-specific Nbs. An antigen was coated onto a 96-well ELISA plate (R&D system) at an amount of approximately 1-10 ng per well in a coating buffer (15 mM sodium carbonate, 35 mM sodium bicarbonate, pH 9.6) overnight at 4° C. The well surface was then blocked with a blocking buffer (DPBS, 0.05% Tween 20, 5% milk) at room temperature for 2 hours. To test an immune response, the immunized serum was serially 5-fold diluted in the blocking buffer. The diluted sera were incubated with the antigen coated wells at room temperature for 2 hours. HRP-conjugated secondary antibodies against llama Fc (Bethyl) were diluted 1:10,000 in the blocking buffer and incubated with each well for 1 hour at room temperature. […] Nbs of both specific binders for test and scramble negative controls were serially 10-fold diluted from 10 μM to 1 μM in the blocking buffer. HRP-conjugated secondary antibodies against His-tag (Genscript) or T7-tag (Thermo) were diluted 1:5,000 or 1:10,000 in the blocking buffer and incubated for 1 hour at room temperature. Three washes with 1x PBST (DPBS, 0.05% Tween 20) were carried out to remove nonspecific absorbance between incubations. After the final wash, the samples were further incubated under dark with freshly prepared w3,3′,5,5′-Tetramethylbenzidine (TMB) substrate for 10 mins at room temperature to develop the signals. After the STOP solution (R&D system), the plates were read at multiple wavelengths (450 nm and 550 nm) on a plate reader (Multiskan GO, Thermo Fisher). A false positive Nb binder was defined if any of the following two criteria was met: i) the ELISA signal can only be detected at a concentration of 10 μM and was under detected at 1 μM concentration. ii) At 1 μM concentration, a pronounced signal decrease (by more than 10-fold) was detected compared to the signal at 10 μM, while there were no signals can be detected at lower concentrations. The raw data was processed by Prism 7 (GraphPad) to fit into a 4PL curve and to calculate logIC50.

| ELISA affinity (LogIC50 (oD450nm)) | Binder |
| --- | --- |
| 2.49 | B1 |

biological target: T2, MBP-PDZ fusion protein; experiment: beads-binding assay, MBP-PDZ-coupled resin
Method: After Nb induction and cell lysis, the cell lysates were run on SDS-PAGE to estimate Nb expression levels. Recombinant Nbs in the cell lysis were diluted in 1x DPBS (pH 7.4) to a final concentration of ˜5 μM (for GST Nbs) and ˜50 nM (for PDZ Nbs). To test the specific interactions of Nbs with antigens, different antigens were coupled to the CNBr resin. Inactivated or MBP-conjugated CNBr resin was used for control. Antigen coupled resins or control resins were incubated with Nb lysates at 4° C. for 30 mins. The resins were then washed three times with a washing buffer (1x DPBS with 150 mM NaCl and 0.05% Tween 20) to remove nonspecific bindings. Specific antigen bound Nbs were then eluted from the resins by the hot LDS buffer containing 20 mM DTT and ran on SDS-PAGE. The intensities of Nbs on the gel were compared between antigen specific signals and control signals to derive the false positive binding.

| binding result | Binder |
| --- | --- |
| binds | B4 |
| binds | B5 |
| binds | B6 |
| binds | B7 |
| binds | B8 |
| binds | B9 |
| binds | B10 |

biological target: T4, human serum albumin; experiment: indirect ELISA, HSA coated
Method: as §2

| ELISA affinity (LogIC50 (oD450nm)) | Binder | binding result |
| --- | --- | --- |
| 5.63 | B11 | – |
| 7 | B12 | – |
| 5.12 | B13 | – |
| 5.62 | B14 | – |
| 5.88 | B15 | – |
| – | B16 | no binding (tested: Nb titrated from 10 µM) |
| 5.65 | B17 | – |
| 5.76 | B18 | – |
| 5.99 | B19 | – |
| 5.96 | B3 | – |
| 6.27 | B20 | – |
| 5.89 | B21 | – |
| 5.4 | B22 | – |
| 5.34 | B23 | – |

biological target: T4, human serum albumin; experiment: SPR, HSA immobilised;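 also: nanobody analytes injected as dilution series across three log units over CM5 chip with amine-coupled antigen, kinetics fitted by 1:1 Langmuir model, optionally with mass transfer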
Method: as §1

| Kd [nM] | koff [s⁻¹] | kon [M⁻¹ s⁻¹] | Binder |
| --- | --- | --- | --- |
| 0.266 | 0.000182 | 683000 | B11 |
| 0.454 | 0.000504 | 1.11e+06 | B12 |
| 1.66 | 0.00868 | 5.24e+06 | B13 |
| 1.09 | 9.79e-05 | 93500 | B14 |
| 0.17 | 3.99e-05 | 234000 | B15 |
| 0.502 | 8.71e-05 | 171000 | B17 |
| 0.247 | 3.8e-05 | 154000 | B18 |
| 0.0862 | 0.000116 | 1.34e+06 | B19 |
| 0.0223 | 5.57e-06 | 250000 | B3 |
| 0.061 | 1.55e-05 | 255000 | B20 |
| 0.164 | 0.000168 | 1.03e+06 | B21 |
| 0.266 | 0.000264 | 992000 | B22 |
| 0.858 | 0.000802 | 936000 | B23 |

Source: US20230176070A1 (published 2023)
